Data published in patent US20100041743A1.

Experiments:
Experiment in all cases: cell-based or functional assay
rabbit IgG (Sigma) = biological target: rabbit IgG (Sigma)
[1] = biological target: human IgG (Gammonativ, Octapharma)
[2] = biological target: anti-OVA mouse IgG1 (mAb, Sigma)

half-life of injected rabbit IgG in bFcRn/mFcRn-/- mice (15 hours in FcRn-/- mice) (rabbit IgG (Sigma)): 67 h
beta-phase half-life (hours) of injected human IgG in bFcRn Tg mice (line #14 homozygote), 10 µg/BWg [1]: 172 h
beta-phase half-life (hours) of injected human IgG in bFcRn Tg mice (line #14 homozygote), 20 µg/BWg [1]: 181 h
beta-phase half-life (hours) of injected mouse IgG in bFcRn Tg mice (line #14 homozygote), 10 µg/BWg [2]: 165 h
Substance: hybrid bFcRn α-chain / mouse β2m receptor (bovine FcRn expressed in BAC 128E04 transgenic mice) (from UniProt F6R592 35-358; P01887 21-119)
